Experimental findings from patent US20140235553 are described below.

Series [1] deals with NTD-αA crystallin fusion protein.
For series [2], the system named is NTD-αB crystallin fusion protein.

In the case of lysozyme, the “CLA: suppression of chemically-induced aggregation of substrate protein” value in series [1] is reported as “These proteins also displayed CLA, as evidenced by suppressing the chemically-induced aggregation of substrate proteins such as lysozyme”; in series [2] it was “These proteins also displayed CLA, as evidenced by suppressing the chemically-induced aggregation of substrate proteins such as lysozyme”.
